Data published in patent US20100021479A1 (Bristol-Myers Squibb, published 2010).

T1: human CD30 (human, UniProt P28908 19-595)
T1 sequence (looked up): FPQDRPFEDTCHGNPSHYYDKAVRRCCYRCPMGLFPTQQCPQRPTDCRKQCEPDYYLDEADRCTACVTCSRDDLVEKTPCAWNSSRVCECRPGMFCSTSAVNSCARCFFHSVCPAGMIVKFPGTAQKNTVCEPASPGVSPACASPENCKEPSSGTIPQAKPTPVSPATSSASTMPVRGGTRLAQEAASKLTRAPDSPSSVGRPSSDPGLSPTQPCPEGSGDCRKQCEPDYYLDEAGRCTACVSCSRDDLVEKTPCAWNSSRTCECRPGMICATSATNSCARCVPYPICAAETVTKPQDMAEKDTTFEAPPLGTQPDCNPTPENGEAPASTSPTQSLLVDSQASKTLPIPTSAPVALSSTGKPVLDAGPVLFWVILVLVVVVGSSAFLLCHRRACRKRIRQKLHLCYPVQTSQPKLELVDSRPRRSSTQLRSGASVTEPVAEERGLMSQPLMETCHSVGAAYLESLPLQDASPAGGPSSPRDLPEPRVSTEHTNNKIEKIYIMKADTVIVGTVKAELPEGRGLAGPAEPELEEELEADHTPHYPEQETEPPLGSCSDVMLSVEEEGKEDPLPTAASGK

T2: cynomolgus CD30 on PHA, Con A and rIL-2 activated cynomolgus peripheral blood mononuclear cells (cynomolgus, UniProt A0A2K5VW07 29-603)
T2 construct: whole, on cells
T2 sequence: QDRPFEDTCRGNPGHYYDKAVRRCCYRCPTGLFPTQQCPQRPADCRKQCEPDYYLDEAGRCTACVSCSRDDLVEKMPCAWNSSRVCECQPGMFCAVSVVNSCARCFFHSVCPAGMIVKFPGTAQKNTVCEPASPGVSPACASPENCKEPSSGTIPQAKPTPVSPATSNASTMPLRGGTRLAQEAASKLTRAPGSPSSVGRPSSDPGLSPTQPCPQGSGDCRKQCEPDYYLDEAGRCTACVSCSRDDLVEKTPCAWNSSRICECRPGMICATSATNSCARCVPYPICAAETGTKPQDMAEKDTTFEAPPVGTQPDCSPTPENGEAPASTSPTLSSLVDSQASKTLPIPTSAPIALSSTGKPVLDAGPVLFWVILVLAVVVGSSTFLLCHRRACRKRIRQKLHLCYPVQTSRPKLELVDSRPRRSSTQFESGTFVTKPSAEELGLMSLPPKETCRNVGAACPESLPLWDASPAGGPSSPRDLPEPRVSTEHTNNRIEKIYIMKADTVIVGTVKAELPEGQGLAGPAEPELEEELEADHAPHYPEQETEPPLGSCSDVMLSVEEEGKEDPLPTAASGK

B1: fucosylated 5F11 anti-CD30 fully human monoclonal antibody (expressed in CHO DG44 cells) (antibody, IgG1, V domains shown)
VH: QVQLQQWGAGLLKPSETLSLTCAVYGGSFSAYYWSWIRQPPGKGLEWIGDINHGGGTNYNPSLKSRVTISVDTSKNQFSLKLNSVTAADTAVYYCASLTAYWGQGSLVTVSS
VL: DIQMTQSPTSLSASVGDRVTITCRASQGISSWLTWYQQKPEKAPKSLIYAASSLQSGVPSRFSGSGSGTDFTLTISSLQPEDFATYYCQQYDSYPITFGQGTRLEIK
notes: It was made in CHO DG44 (FUT8+/+) cells, so the carbohydrate contains fucose; also called fuc-5F11; Anti-CD30 + fucose
B2: defucosylated 5F11 anti-CD30 fully human monoclonal antibody (expressed in FUT8-/- Ms704 cells) (antibody, V domains shown)
VH: QVQLQQWGAGLLKPSETLSLTCAVYGGSFSAYYWSWIRQPPGKGLEWIGDINHGGGTNYNPSLKSRVTISVDTSKNQFSLKLNSVTAADTAVYYCASLTAYWGQGSLVTVSS
VL: DIQMTQSPTSLSASVGDRVTITCRASQGISSWLTWYQQKPEKAPKSLIYAASSLQSGVPSRFSGSGSGTDFTLTISSLQPEDFATYYCQQYDSYPITFGQGTRLEIK

Assays:
human CD30 [1] = target: T1, human CD30; experiment: cell-based or functional assay
human CD30 [2] = target: T1, human CD30; experiment: Scatchard analysis, 125I-labelled antibody on CD30 positive L540 cells, 4 °C
Description: (§1) Human or cynomolgus peripheral blood cells were stimulated with 2 μg/ml PHA, 10 μg/ml Con A, and 50 U/ml rIL-2 and cultured in RPMI1640 media containing 10% fetal bovine serum (FBS) at 1×10⁶ cells/ml density for 3 days. On the day of the study, the cells were washed and adjusted to 2×10⁷ cells/m in binding buffer (RPMI1640+10% FBS). As a control, CD30 positive L540 cells (adjusted to 4-8×10⁶ cells/ml) were used in these studies since they express high levels of the antigen. The cells were placed on ice until the initiation of the experiment. Millipore glass fiber filter plates (MAFBN0B50) were coated with 1% nonfat dry milk in water and stored a 4° C. overnight. The plates were washed three times with 0.2 ml of binding buffer. Fifty microliters of buffer alone was added to the maximum binding wells (total binding). Twenty-five microliters of buffer alone was added to the control wells. Varying concentration of ¹²⁵I-anti-CD30 antibody was added to all wells in a volume of 25 μL. Varying concentrations of unlabeled antibody at 300-400 fold excess were added in a volume of 25 μl to control wells (non-specific binding) and 25 μl of CD30 positive L540 cells or stimulated human or cynomolgus peripheral blood cells in binding buffer were added to all wells. The plates were incubated for 2 hours at 200 RPM on a shaker at 4° C. […] The filters were removed and counted in a gamma counter. […]

human CD30 [3] = target: T1, human CD30; experiment: Scatchard analysis, 125I-labelled antibody on PHA/Con A/rIL-2-activated human peripheral blood cells, 4 °C
Description: as §1

[4] = target: T2, cynomolgus CD30 on PHA, Con A and rIL-2 …; experiment: Scatchard analysis, 125I-labelled antibody on PHA/Con A/rIL-2-activated cynomolgus peripheral blood mononuclear cells, 4 °C
Description: as §1

Binder | EC50 of ADCC, Karpas cells (human CD30 [1]) | EC50 of ADCC, L428 cells (human CD30 [1]) | EC50 of ADCC, L540 cells (human CD30 [1]) | EC50 of ADCC, L1236 cells (human CD30 [1]) | Kd (human CD30 [2]) | Kd (human CD30 [3]) | Kd [4] | % Lysis ratio fucose-:fucose+, ADCC, Karpas cells (human CD30 [1]) | % Lysis ratio fucose-:fucose+, ADCC, L428 cells (human CD30 [1]) | % Lysis ratio fucose-:fucose+, ADCC, L540 cells (human CD30 [1]) | % Lysis ratio fucose-:fucose+, ADCC, L1236 cells (human CD30 [1]) | EC50 ratio fucose+:fucose-, ADCC, Karpas cells (human CD30 [1]) | EC50 ratio fucose+:fucose-, ADCC, L428 cells (human CD30 [1]) | EC50 ratio fucose+:fucose-, ADCC, L540 cells (human CD30 [1]) | EC50 ratio fucose+:fucose-, ADCC, L1236 cells (human CD30 [1])
B1 | 0.25 µg/mL | 0.1 µg/mL | 0.042 µg/mL | 1.22 µg/mL | 1.37 nM | 1.08 nM | 0.47 nM | – | – | – | – | – | – | – | –
B2 | – | – | – | – | – | – | – | 2.63 fold | 2.15 fold | 1.61 fold | 3.25 fold | 7.8 fold | 11.1 fold | 4.7 fold | 27.1 fold
